Patent US20090130123A1 (published 2009)

Experiments:
[1] = molecular target: T1, Recombinant WNV-E protein ectodomain (West Nile virus, UniProt Q9Q6P4 291-700); experiment: ELISA; plate coated with rWNV-E (1 ug/ml), purified His6-tagged scFv, anti-His6-HRP, OD450
T1 construct: extracellular domain; also called rWNV-E; WNE
T1 sequence (looked up): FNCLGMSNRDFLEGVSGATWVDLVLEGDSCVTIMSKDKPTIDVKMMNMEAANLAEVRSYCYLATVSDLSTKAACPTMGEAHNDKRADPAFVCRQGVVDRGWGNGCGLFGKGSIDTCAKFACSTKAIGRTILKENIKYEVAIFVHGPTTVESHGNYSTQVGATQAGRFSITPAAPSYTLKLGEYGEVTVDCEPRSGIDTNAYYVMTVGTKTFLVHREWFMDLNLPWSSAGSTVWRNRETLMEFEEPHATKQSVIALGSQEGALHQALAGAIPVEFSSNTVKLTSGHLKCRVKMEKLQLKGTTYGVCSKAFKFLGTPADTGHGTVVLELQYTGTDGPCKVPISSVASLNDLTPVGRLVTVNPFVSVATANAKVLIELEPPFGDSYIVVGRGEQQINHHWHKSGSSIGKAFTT

[2] = molecular target: T1, Recombinant WNV-E protein ectodomain; experiment: SPR (Biacore 3000); scFv on NTA chip via His tag, rWNV-E in solution

B1: scFv 10 (scFv, not shown: small tags and cut ends)
scFv: MAQVQLVQSGAEVKKPGSSVKVSCKASGYTFSGYSTHWLRQVPGQGLEWIGWDNPSSGDTTYAENFRGRVTLTRDTSITTDYLEVRGLRSDDTAVYYCARGGDDYSFDHWGQGTLVTVSSSGGGSGGGGSGGGGSQTVVTQEPSFSVSPGGTITLTCGLSSGSVFTSYYPSWYQQTPGQAPRTLIYSTNTRSSGVPDRFSGSILGNKAALTITGAQADDESDYYCVLYMGSGIGVFGTGTKVTVLGQPKAAPSAAAEQKLISEEDL
notes: also called 10 scFv; antibody 10
- EC50 (read off the curve) [1]: ~0.2 µg/mL
- Ka [2]: 2.64e+07 M⁻¹
- Kd [2]: 37.8 nM
- koff [2]: 0.0212 s⁻¹
- kon [2]: 561000 M⁻¹ s⁻¹
